Source: patent US20080318857A1 (MEDICAL COLLEGE OF GEORGIA RESEARCH INSTITUTE, published 2008)

Target: T1, VEGFR-2 (KDR), endogenous in A375 human malignant melanoma cells (human, UniProt P35968 20-1356, limits assumed)
T1 construct: Endogenous protein in cell lysate; also called Flk
Assay: co-immunoprecipitation: anti-FLT IP of transfected hypoxic A375 cell fraction, Western blot with anti-VEGFR-2
Method: HMMCs transfected with pCMV.Flt23K or pCMV.Flt24K were subjected to hypoxia 48 hours after transfection. Two days later, the cellular fraction was immunoprecipitated with anti-FLT antibody (epitope specific for domains 2 and 3; Santa Cruz, Calif.) and subsequently underwent Western blotting with an anti-VEGF or an anti-VEGFR-2 antibody. A 50 kDa band (consistent with a VEGF homodimer interacting with the intraceptor) was detected in cells transfected with pCMV.Flt23K or pCMV.Flt24K (FIG. 5A). A 30 kDa band was present in cells transfected with pCMV.Flt24K but not pCMV.Flt23K (FIG. 5B).

T1 sequence (P35968 20-1356 limits assumed): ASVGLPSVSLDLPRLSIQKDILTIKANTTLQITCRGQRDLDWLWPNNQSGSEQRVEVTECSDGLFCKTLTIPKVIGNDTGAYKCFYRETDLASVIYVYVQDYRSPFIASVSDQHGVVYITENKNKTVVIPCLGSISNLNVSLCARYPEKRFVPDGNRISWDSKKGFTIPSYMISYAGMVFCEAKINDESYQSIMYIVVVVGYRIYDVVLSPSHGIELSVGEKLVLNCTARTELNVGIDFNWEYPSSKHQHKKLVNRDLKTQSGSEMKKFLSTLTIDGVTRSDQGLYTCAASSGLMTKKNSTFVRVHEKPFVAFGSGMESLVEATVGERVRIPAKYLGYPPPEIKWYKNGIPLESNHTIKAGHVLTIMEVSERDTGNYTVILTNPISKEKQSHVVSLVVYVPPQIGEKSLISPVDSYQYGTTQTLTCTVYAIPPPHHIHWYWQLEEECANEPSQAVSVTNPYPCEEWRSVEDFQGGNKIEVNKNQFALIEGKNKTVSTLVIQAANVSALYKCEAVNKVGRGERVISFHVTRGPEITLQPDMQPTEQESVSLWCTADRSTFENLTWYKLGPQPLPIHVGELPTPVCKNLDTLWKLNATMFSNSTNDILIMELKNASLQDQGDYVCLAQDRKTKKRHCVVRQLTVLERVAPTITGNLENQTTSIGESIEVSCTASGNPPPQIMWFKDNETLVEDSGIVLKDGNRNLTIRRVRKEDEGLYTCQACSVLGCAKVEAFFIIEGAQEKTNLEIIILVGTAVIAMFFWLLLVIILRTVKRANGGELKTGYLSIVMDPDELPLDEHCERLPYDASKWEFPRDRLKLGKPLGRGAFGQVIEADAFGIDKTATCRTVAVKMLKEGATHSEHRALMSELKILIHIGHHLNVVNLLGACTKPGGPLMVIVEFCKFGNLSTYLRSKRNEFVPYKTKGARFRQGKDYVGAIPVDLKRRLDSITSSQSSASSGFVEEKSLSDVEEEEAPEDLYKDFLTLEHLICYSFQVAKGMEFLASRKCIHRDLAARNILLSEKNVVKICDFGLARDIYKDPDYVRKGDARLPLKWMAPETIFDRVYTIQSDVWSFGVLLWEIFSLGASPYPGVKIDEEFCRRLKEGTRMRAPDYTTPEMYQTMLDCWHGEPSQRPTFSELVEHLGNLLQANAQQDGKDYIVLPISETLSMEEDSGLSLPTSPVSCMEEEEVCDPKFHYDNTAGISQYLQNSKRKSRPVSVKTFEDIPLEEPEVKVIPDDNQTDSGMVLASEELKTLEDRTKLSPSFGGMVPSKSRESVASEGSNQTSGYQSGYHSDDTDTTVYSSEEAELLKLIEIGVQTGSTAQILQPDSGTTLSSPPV

B1: Flt23K intraceptor (Flt23-KDEL; domains 2 and 3 of VEGFR-1 (Flt) fused at the C-terminus to the ER retention signal KDEL) (receptor)
chain: DTGRPFVEMYSEIPEIIHMTEGRELVIPCRVTSPNITVTLKKFPLDTLIPDGKRIIWDSRKGFIISNATYKEIGLLTCEATVNGHLYKTNYLTHRQTNTIIDVQISTPRPVKLLRGHTLVLNCTATTPLNTRVQMTWSYPDEKNKRASVRRRIDQSNSHANIFYSVLTIDKMQNKDKGLYTCRVRSGPSFKSVNTSVHIYDKAFITVKHRKKDEL
notes: Expressed inside transfected cells from pCMV.Flt23K, not purified; also called pCMV.Flt23K (expression plasmid); pCMV.Flt23
B1: no binding.
